T1: CrtJ (Rhodobacter capsulatus, UniProt P26167 1-469, labeled using RED-NHS protein labeling kit (Nanotemper))
T1 construct: CrtJ, redox-responding transcription factor (aerobic repressor of photosystem genes) of Rhodobacter capsulatus; also called SUMO-CrtJ; PpsR (name in some other species); source: recombinant protein from plasmid pSUMO-CrtJ (PMID: 22715852)
T1 sequence (looked up): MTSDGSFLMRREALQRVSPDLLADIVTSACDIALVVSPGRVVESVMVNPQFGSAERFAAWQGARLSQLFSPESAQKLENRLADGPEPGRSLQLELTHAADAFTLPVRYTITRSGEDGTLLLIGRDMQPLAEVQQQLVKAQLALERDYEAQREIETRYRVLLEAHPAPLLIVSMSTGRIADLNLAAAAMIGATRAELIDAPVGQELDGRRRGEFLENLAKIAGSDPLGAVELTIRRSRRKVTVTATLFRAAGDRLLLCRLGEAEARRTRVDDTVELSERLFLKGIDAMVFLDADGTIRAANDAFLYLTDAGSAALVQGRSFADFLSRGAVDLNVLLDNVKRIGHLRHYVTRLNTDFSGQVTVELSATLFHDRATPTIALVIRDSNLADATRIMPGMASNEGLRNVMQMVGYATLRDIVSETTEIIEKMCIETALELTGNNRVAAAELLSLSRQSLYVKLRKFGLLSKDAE

B1: LAerR (long isoform of AerR) (natural protein)
chain: MNGVAELQTVLVNRMVELATGPELGAMDLLFDEFRAAHVPVEEMATHYIPEAARQIGAAWDSDRIGFAQVTIAISRLQELLHALQTLVTADSVGCANGATVLLIVPPGEQHTLGALIVAMELRRRGVSVRIVFAPGLSDLSRLMATTRFDAALITVGSMDRVEICAKLVKTLSSLTKGRMRVAIGGAIVSQRAEALARTGADLVTNDLSLVISEFSLV

What was measured:
[1] = molecular target: CrtJ (Rhodobacter capsulatus) (UniProt P26167); experiment: MST; Monolith NT.115; RED-NHS-labeled CrtJ kept constant (200 or 500 nM), AerR varied from µM to nM; 20 mM Tris-HCl pH 8.0, 200 mM NaCl; AerR with bound hydroxyl-Cbl (OH-Cbl)
[2] = molecular target: CrtJ (Rhodobacter capsulatus) (UniProt P26167); experiment: MST; Monolith NT.115; RED-NHS-labeled CrtJ kept constant (200 or 500 nM), AerR varied from µM to nM; 20 mM Tris-HCl pH 8.0, 200 mM NaCl; SAerR with bound Adenosyl-Cbl (Ado-Cbl)
CrtJ = molecular target: T1, CrtJ; experiment: MST; Monolith NT.115; RED-NHS-labeled CrtJ kept constant (200 or 500 nM), AerR varied from µM to nM; 20 mM Tris-HCl pH 8.0, 200 mM NaCl; AerR with bound hydroxyl-Cbl (OH-Cbl); conditions: both partners purified

Row | Molecule | EC50 [1] | EC50 [2] | EC50 (CrtJ)
1 | SAerR (short isoform of AerR) (natural protein) | 2100 nM | 2100 nM | 
2 | B1 |  |  | 7.8 ± 1.2 µM

From PMC6199135, “Differing isoforms of the cobalamin binding photoreceptor AerR oppositely regulate photosystem expression” (eLife, 2018)
